Laboratory results from publication PMC3958441, “Isl1 and Pou4f2 Form a Complex to Regulate Target Genes in Developing Retinal Ganglion Cells” (PLoS ONE, 2014).

T1: Pou4f2 (Brn3b) (mouse, UniProt Q63934 1-411)
T1 sequence: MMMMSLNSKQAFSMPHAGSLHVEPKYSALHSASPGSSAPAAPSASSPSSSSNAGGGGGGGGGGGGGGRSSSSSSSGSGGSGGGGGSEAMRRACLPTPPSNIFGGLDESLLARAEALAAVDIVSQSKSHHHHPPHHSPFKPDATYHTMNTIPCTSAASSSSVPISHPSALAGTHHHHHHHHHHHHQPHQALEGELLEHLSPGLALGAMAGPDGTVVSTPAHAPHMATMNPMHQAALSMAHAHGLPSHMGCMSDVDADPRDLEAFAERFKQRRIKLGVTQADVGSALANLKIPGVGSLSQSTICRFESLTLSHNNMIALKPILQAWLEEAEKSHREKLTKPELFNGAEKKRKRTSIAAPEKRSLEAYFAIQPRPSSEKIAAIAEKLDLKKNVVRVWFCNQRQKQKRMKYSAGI

T2: Isl1 (mouse, UniProt P61372 1-349)
T2 sequence: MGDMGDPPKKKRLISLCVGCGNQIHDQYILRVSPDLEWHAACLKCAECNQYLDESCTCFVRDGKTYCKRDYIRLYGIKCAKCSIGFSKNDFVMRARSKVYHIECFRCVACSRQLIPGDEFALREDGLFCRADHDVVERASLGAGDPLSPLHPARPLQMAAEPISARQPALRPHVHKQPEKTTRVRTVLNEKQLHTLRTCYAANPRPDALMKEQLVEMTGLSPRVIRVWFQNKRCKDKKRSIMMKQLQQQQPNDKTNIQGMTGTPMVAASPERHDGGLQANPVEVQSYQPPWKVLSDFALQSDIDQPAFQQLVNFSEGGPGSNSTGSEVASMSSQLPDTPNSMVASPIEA

T3: Isl1 expressed in HEK 293 cells (mouse, UniProt P61372 1-349)
T3 sequence (looked up): T2 sequence

T4: Pou4f2D5 (mouse, UniProt Q63934 125-411)
T4 sequence: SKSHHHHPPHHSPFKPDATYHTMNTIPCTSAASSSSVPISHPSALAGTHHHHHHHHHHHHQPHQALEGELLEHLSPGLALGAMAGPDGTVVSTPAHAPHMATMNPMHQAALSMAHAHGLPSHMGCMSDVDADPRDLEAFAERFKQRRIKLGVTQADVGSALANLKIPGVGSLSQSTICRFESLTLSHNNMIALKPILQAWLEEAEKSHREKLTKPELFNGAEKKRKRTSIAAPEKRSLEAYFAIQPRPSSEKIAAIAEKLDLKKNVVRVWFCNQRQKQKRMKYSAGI

T5: Pou4f2, full-length, His-tagged (mouse, UniProt Q63934 1-411)
T5 construct: Pou4f2 (Brn3b), mouse, full-length coding region in pET-28a(+); 411 a.a; also called Brn3b; source: E. coli, in lysate (pull-down); purified on His SpinTrap columns (EMSA); not shown: His tag, C-terminal, kept
T5 sequence (looked up): T1 sequence

B1: CBRN3(M) (dsDNA)
DNA 1: GATCTCTCCTGCGCGGTTGACTACCCCCGGAT
DNA 2: GATCCGGGGGTAGTCAACCGCGCAGGAGAGAT
B2: Pou4f2 expressed in HEK 293 cells (natural protein, mouse, UniProt Q63934 1-411, looked up)
chain: T1 sequence
B3: EBF3(W) (dsDNA)
DNA 1: GTGCGTTAATATTTTAATTAATCGGGAAAA
DNA 2: TTTTCCCGATTAATTAAAATATTAACGCAC
B4: IRX6(W) (dsDNA)
DNA 1: GTACTACTAATTAATTAATTGCAAACATTTC
DNA 2: GGAAATGTTTGCAATTAATTAATTAGTAGTA
B5: IRX6(M) (dsDNA)
DNA 1: TACTACTGCTTCGTTGCTTGCAAACATTTC
DNA 2: GGAAATGTTTGCAAGCAACGAAGCAGTAGTA
B6: Pou4f2D5 (a.a. 125-411) (domain or fragment, mouse, UniProt Q63934 125-411, looked up)
chain: T4 sequence
notes: Pou4f2, mouse, a.a; 125-411, POU and homeo domains intact; source: E. coli, in lysate (pull-down); purified on His SpinTrap columns (EMSA); not shown: His tag, C-terminal, kept
B7: Isl1D3 (a.a. 170-349) (domain or fragment, mouse, UniProt P61372 170-349, looked up)
chain: LRPHVHKQPEKTTRVRTVLNEKQLHTLRTCYAANPRPDALMKEQLVEMTGLSPRVIRVWFQNKRCKDKKRSIMMKQLQQQQPNDKTNIQGMTGTPMVAASPERHDGGLQANPVEVQSYQPPWKVLSDFALQSDIDQPAFQQLVNFSEGGPGSNSTGSEVASMSSQLPDTPNSMVASPIEA
notes: Isl1, mouse, a.a; 170-349, only the homeodomain and the C terminal region, none of the Lim domains; source: E. coli, in lysate (pull-down); purified on His SpinTrap columns (EMSA); not shown: His tag, C-terminal, kept
B8: Isl1D5 (a.a. 74-349) (domain or fragment, mouse, UniProt P61372 74-349, looked up)
chain: LYGIKCAKCSIGFSKNDFVMRARSKVYHIECFRCVACSRQLIPGDEFALREDGLFCRADHDVVERASLGAGDPLSPLHPARPLQMAAEPISARQPALRPHVHKQPEKTTRVRTVLNEKQLHTLRTCYAANPRPDALMKEQLVEMTGLSPRVIRVWFQNKRCKDKKRSIMMKQLQQQQPNDKTNIQGMTGTPMVAASPERHDGGLQANPVEVQSYQPPWKVLSDFALQSDIDQPAFQQLVNFSEGGPGSNSTGSEVASMSSQLPDTPNSMVASPIEA
notes: Isl1, mouse, a.a; 74-349; source: E. coli, in lysate (pull-down); purified on His SpinTrap columns (EMSA); not shown: His tag, C-terminal, kept
B9: SBRN3(M) (dsDNA)
DNA 1: GCACACGACCCAGCGCGTTGACAACCGGGCTG
DNA 2: GCAGCCCGGTTGTCAACGCGCTGGGTCGTGTG
B10: Isl1, full-length, His-tagged (natural protein, mouse, UniProt P61372 1-349, looked up)
chain: T2 sequence
notes: Isl1, mouse, full-length coding region in pET-28a(+); 349 a.a; source: E. coli, in lysate (pull-down); purified on His SpinTrap columns (EMSA); not shown: His tag, C-terminal, kept
B11: Isl1D4 (a.a. 146-349) (domain or fragment, mouse, UniProt P61372 146-349, looked up)
chain: PLSPLHPARPLQMAAEPISARQPALRPHVHKQPEKTTRVRTVLNEKQLHTLRTCYAANPRPDALMKEQLVEMTGLSPRVIRVWFQNKRCKDKKRSIMMKQLQQQQPNDKTNIQGMTGTPMVAASPERHDGGLQANPVEVQSYQPPWKVLSDFALQSDIDQPAFQQLVNFSEGGPGSNSTGSEVASMSSQLPDTPNSMVASPIEA
notes: Isl1, mouse, a.a; 146-349; source: E. coli, in lysate (pull-down); purified on His SpinTrap columns (EMSA); not shown: His tag, C-terminal, kept
B12: EBF3(M) (dsDNA)
DNA 1: GTGCGTTGCTATTTTCGTTGCTCGGGAAAA
DNA 2: TTTTCCCGAGCAACGAAAATAGCAACGCAC

What was measured:
Pou4f2 (Brn3b) = target: T1, Pou4f2 (Brn3b); test: EMSA; EMSA: 20 mM Tris-HCl pH 7.5, 50 mM NaCl, 10 mM DTT, 1 mM EDTA, 5% glycerol, 200 ng dI/dC, 200 ng each protein in 20 ul, 4 C, 30 min; 8% PAGE, 1x TBE, 4 C; details: protein: recombinant; tags: His (C-terminal, pET-28a); (radiolabel, Klenow fill-in); 5' overhang 1 nt at both ends before fill-in
Isl1 = target: T2, Isl1; test: as above; details: protein: recombinant, tags: His (C-terminal, pET-28a)
[1] = target: T3, Isl1 expressed in HEK 293 cells; test: cell-based or functional assay
Pou4f2D5 = target: T4, Pou4f2D5; test: EMSA; EMSA: 20 mM Tris-HCl pH 7.5, 50 mM NaCl, 10 mM DTT, 1 mM EDTA, 5% glycerol, 200 ng dI/dC, 200 ng each protein in 20 ul, 4 C, 30 min; 8% PAGE, 1x TBE, 4 C; details: protein: recombinant, tags: His (C-terminal)
[2] = target: B10; test: native gel or EMSA; EMSA with purified His-tagged proteins (200 ng each) and radiolabelled DNA probes (SBRN3, CBRN3; Ebf3 and Irx6 for Isl1 with Pou4f2D5); protein-protein complex read from a slower migrating ternary complex on DNA; 20 mM Tris-HCl pH 7.5, 0.05 M NaCl, 10 mM DTT, 1 mM EDTA, 5% glycerol, 4 C; details: both partners purified
[3] = target: T5, Pou4f2, full-length, His-tagged; test: as above; details: both partners purified
[4] = (radiolabel, Klenow fill-in), 5' overhang 1 nt at both ends before fill-in
[5] = (radiolabel, Klenow fill-in), one end blunt, lower strand 5' overhang 1 nt before fill-in

Binder: B1
binding result (Pou4f2 (Brn3b)): no binding | binding result (Isl1; [4]): no binding

Binder: B2
luciferase reporter with the CBRN3 motif in HEK 293 cells, both expression constructs co-transfected, fold increase from the control (each factor alone about 2.5 fold) [1]: ~3.5 fold

Binder: B3
binding result (Pou4f2D5; (radiolabel, Klenow), blunt): binds | binding result (Isl1; (radiolabel, Klenow), blunt): binds

Binder: B4
binding result (Pou4f2D5; [4]): binds | binding result (Isl1; [4]): binds

Binder: B5
binding result (Pou4f2D5; [5]): no binding | binding result (Isl1; [5]): no binding

Binder: B6
binding result [2]: binds

Binder: B7
binding result [3]: binds

Binder: B8
binding result [3]: binds

Binder: B9
binding result (Pou4f2 (Brn3b)): no binding | binding result (Isl1; [4]): no binding

Binder: B10
binding result [3]: binds

Binder: B11
binding result [3]: binds

Binder: B12
binding result (Pou4f2D5; (radiolabel, Klenow), blunt): no binding | binding result (Isl1; (radiolabel, Klenow), blunt): no binding
